Test results as given in US20250236644A1 (University of Washington, published 2025).

Legend:
[1] = biological target: T1, TAMRA-labeled effector peptide cs074B (5(6)-TAMRA label coupled on resin after synthesis); test: fluorescence polarization titration; TAMRA-peptide constant, unlabeled hinge varied
T1 construct: Chemically synthesized; also called TAMRA-cs074B
T1 peptide: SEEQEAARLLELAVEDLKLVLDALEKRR
Procedure: (§1) All FP measurements were performed at 25° C. in 96-well plates (Corning 3686) using a Synergy Neo2™ plate reader and a 530/590 nm filter cube. The buffer for all FP measurements was 20 mM Tris-HCl, 100 mM NaCl, 0.05% v/v TWEEN20 at pH 8. Titrations were carried out in 96-well format, with 4 replicates per plate and 24 data points per titration (23 steps of two-fold serial dilution of hinges in the presence of TAMRA-labeled peptide at a constant concentration between 0.1 nM and 1 nM) with a final sample volume of 80 μl per well. Titration plates were incubated overnight at room temperature before measuring to ensure complete equilibration. The polarization signal S (as calculated by the Neo2™ software) was fitted to the equation

[2] = biological target: T1, TAMRA-labeled effector peptide cs074B; test: fluorescence polarization kinetics; slope of kapp against hinge concentration
Procedure: as §1
(§2) For FP kinetics experiments a 2× peptide solution and 8 different 2× hinge solutions at different concentrations were prepared separately. 40 μl of each hinge solution were mixed with 40 μl peptide solution using a multichannel pipet and the measurement was started immediately after mixing. Polarization signals S at each concentration were fitted individually to the equation

[3] = biological target: T2, TAMRA-labeled effector peptide js007B (5(6)-TAMRA label coupled on resin after synthesis); test: fluorescence polarization titration; TAMRA-peptide constant, hinge varied
T2 construct: also called TAMRA-js007B
T2 peptide: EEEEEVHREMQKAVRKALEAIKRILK
From the text: (§3) We used our hinge design approach to generate hinge-peptide pairs that span a wide structural space (FIGS. 1D, 2A, 6, 7). We experimentally tested multiple rounds of designs, using both DHRs (21) and helical junctions (22) as input scaffolds, and improving individual steps of the design pipeline between iterations. Designs for which hinge and GFP-fused peptide were soluble and interacted as judged by size exclusion chromatography (SEC, FIGS. 7-8) were selected for further characterization by fluorescence polarization (FP). […] To circumvent the bottleneck of finding soluble peptide sequences, we also sought to design hinges that bind to a given target peptide. Starting from design cs201, we used a modified version of our design pipeline to redesign the hinge to bind peptides cs074B or cs221B, respectively, which have similar hydrophobic fingerprints as the original target peptide cs201B.
as §1

[4] = biological target: T2, TAMRA-labeled effector peptide js007B; test: fluorescence polarization kinetics; slope of kapp against hinge concentration
Procedure: as §1, §2

[5] = biological target: T3, TAMRA-labeled effector peptide cs217B (5(6)-TAMRA label coupled on resin after synthesis); test: fluorescence polarization titration; signal never reached a plateau, only a lower bound can be estimated
T3 construct: also called TAMRA-cs217B
T3 peptide: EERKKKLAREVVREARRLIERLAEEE
Procedure: as §1

[6] = biological target: T4, TAMRA-labeled effector peptide cs221B (5(6)-TAMRA label coupled on resin after synthesis); test: FP titration, 1 nM TAMRA-labeled peptide, reducing conditions
T4 construct: also called TAMRA-cs221B
T4 peptide: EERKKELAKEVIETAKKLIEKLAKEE
From the text: To test the effect of the conformational pre-equilibrium on effector binding, we introduced disulfide “staples” that lock the hinge in one conformation. Using FP we analyzed peptide binding to stapled versions of hinge cs221 (FIG. 5A,B). […] Using the pre-equilibrium model described above, the observed association rates provide an estimate of the fraction of hinge that is in state Y in absence of the peptide: a 200-fold higher observed on rate for the locked Y variant indicates a 200-fold higher fraction of hinge in state Y compared to the original hinge. Assuming that the locked Y variant is 100% in state Y and assuming that the microscopic rate constant k₂ is identical for the locked Y hinge and state Y of the original hinge, this would indicate that the original hinge is 99.5% in state X and 0.5% in state Y at equilibrium.
All FP measurements were performed at 25° C. in 96-well plates (Corning 3686) using a Synergy Neo2™ plate reader and a 530/590 nm filter cube. The buffer for all FP measurements was 20 mM Tris-HCl, 100 mM NaCl, 0.05% v/v TWEEN20 at pH 8. […] The polarization signal S (as calculated by the Neo2™ software) was fitted to the equation

effector protein 3hb32 = biological target: T5, effector protein 3hb32; test: SEC binding experiment
T5 chain: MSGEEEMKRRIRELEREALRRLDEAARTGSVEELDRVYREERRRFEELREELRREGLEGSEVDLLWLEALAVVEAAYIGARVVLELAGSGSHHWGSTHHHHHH

[7] = biological target: T6, TAMRA-labeled effector peptide cs269B (5(6)-TAMRA label coupled on resin after synthesis); test: fluorescence polarization titration; TAMRA-peptide constant, hinge varied
T6 construct: also called TAMRA-cs269B
T6 peptide: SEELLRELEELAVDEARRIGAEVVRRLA
From the text: as §3, §1

[8] = biological target: T6, TAMRA-labeled effector peptide cs269B; test: fluorescence polarization kinetics; 5 nM TAMRA-peptide, slope of kapp against hinge concentration
effector protein 3hb24 = biological target: T7, effector protein 3hb24; test: SEC binding experiment
T7 chain: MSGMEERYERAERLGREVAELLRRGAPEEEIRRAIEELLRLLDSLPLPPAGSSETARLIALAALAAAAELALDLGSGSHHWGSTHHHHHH

[9] = biological target: T8, TAMRA-labeled effector peptide cs230B (5(6)-TAMRA label coupled on resin after synthesis); test: fluorescence polarization titration; TAMRA-peptide constant, hinge varied
T8 construct: also called TAMRA-cs230B
T8 peptide: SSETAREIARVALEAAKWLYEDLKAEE
From the text: as §3, §1

[10] = biological target: T4, TAMRA-labeled effector peptide cs221B; test: fluorescence polarization titration; 1 nM TAMRA-peptide, unlabeled hinge varied
Procedure: as §1

effector protein 3hb03 = biological target: T9, effector protein 3hb03; test: SEC binding experiment
T9 construct: Three-helix bundle built around peptide cs074B
T9 chain: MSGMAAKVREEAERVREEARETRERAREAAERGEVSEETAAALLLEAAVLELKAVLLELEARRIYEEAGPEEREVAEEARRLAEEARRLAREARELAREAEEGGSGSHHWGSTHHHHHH

effector protein 3hb12 = biological target: T10, effector protein 3hb12; test: SEC binding experiment
T10 construct: Three-helix bundle built around peptide cs074B
T10 chain: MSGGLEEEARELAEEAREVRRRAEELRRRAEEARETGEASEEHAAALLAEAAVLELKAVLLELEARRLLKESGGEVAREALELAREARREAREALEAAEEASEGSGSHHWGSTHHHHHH

effector protein 3hb04 = biological target: T11, effector protein 3hb04; test: SEC binding experiment
T11 construct: Three-helix bundle built around peptide cs074B
T11 chain: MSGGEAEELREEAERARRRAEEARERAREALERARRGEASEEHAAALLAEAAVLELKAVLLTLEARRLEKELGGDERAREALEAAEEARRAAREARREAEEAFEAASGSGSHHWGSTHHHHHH

effector protein 3hb08 = biological target: T12, effector protein 3hb08; test: SEC binding experiment
T12 construct: Three-helix bundle built around peptide cs074B
T12 chain: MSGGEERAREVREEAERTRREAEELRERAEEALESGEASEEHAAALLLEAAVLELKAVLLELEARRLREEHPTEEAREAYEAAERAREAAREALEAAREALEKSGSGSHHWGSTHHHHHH

effector protein 3hb11 = biological target: T13, effector protein 3hb11; test: SEC binding experiment
T13 construct: Three-helix bundle built around peptide cs074B
T13 chain: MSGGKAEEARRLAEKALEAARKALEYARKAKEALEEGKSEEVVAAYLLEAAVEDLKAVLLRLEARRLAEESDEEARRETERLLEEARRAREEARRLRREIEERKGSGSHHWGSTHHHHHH

[11] = biological target: T1, TAMRA-labeled effector peptide cs074B; test: fluorescence polarization titration; TAMRA-peptide constant, hinge varied
From the text: as §3, §1

B1: FRET(extension) cs074F, unlabeled (designed binder)
chain: DEEVQEAVERAEELREEAEELIKKARKTGDPELLRKALEALECAVRAVEEAIKRNPDNDEAVETAVRLARELKKVAEELQERAKKTGDPELLKLALRALKVAVRAVKLAIKSNPDNEEAVKTAVRLARELLKVAEELKERAEKTGDPRLLLLAAEAIAWAIEAVFLAAKASENTEGALEAARAAVKLAEVAKRIAKLLQRDAKKEGDPELLKLALRALELAVRAVELAIKENPDNDEAVETAVRLARELKKVAEELQERAKKTGDPELLKLALRALEVAVRAVELAIKSNPDNEEAVETAKRLAEELRKVAELLEERACETGDPELQELAKRAKEVADRARELAKKSNPNNGSHHHHHH
notes: also called unlabeled extended hinge cs074F
With B1 the Kd [1] was under 2 nM and the kon [2] was 100000 M⁻¹ s⁻¹.

B2: hinge js007 (designed binder)
chain: MSGSEEVNERVKQLAEKAKEATDKEEVIEIVKELAELAKQSTDPNLVAEVVRALTEVAKTSTDTELIQEIVKVLLELARRLTDPQLLLEVLKSIAELLKELAEKTGNETAKLAALVAQIAAEVVEMALRAEKTHPGSEIVKLAVELVQKVAEIVLIAAQLMLDKPNSDEVRKVLKEVEKVAREALKALREAKRHPDSQKARDEIKEASQKAEEVKERIERAQEGSGSHHWGSTHHHHHH
With B2 the Kd [3] was 5.7 nM and the kon [4] was 78000 M⁻¹ s⁻¹.

B3: hinge cs217 (designed binder)
chain: MSGEMKEEIRRLAEELEKKTKDEEVKELARKAAELAEKSDNEEVLEVVKEALRAALKSKDEEVRRLLLEAAVLAAAAESSGSPEEKLEVALRAIRLAEKSKDEEVRRLALEAAVLAAESDDEEVLEEVLRALRRAEESKDEEERREELREAVRRAREGSGSHHWGSTHHHHHH
For B3, the Kd [5] was 20000 nM.

B4: variant cs221_lockedX, reducing conditions (DTT) (designed binder)
chain: MSGEMKEEIRRLAEELRERTKDEEVRELAREAARLAEESDDEEVKEVVKKALEAALKSKDEEVIRLLLLAAVCAAAAARSGSPEEKLEIAKKALELAMKSKDEEVIRLALLAAVLACRSDDEEVLKKVKEALEKAMESKDVEEIRERLREAVEVARAGSGSHHWGSTHHHHHH
notes: also called locked X with DTT
B4: binds [6].

B5: hinge cs269 (designed binder)
chain: MSGDEERVRELAERASREAERAVRSGSEESLEEALRNVEELIRKSDSEEARVRVAEAAVRAAAEAAARSGTVEAAAVAVIFTARVLQIVSSSEEAVVRVLAAAAAAAARVAVELGTEEALETALRFVELLVRLADSDEARQRVLRSASESARRSAEESGSERAREVAERFRERIERNQGSGSHHWGSTHHHHHH
B5 was tested, and the binding result (effector protein 3hb32) was “binds”, the Kd [7] was 83 nM and the kon [8] was 2500 M⁻¹ s⁻¹.

B6: hinge cs230 (designed binder)
chain: MSGTKEEKERIERIEKEVRSPDPENILEAVRKALELFRENPSEEAKELLKRAIEAALRSEDERAILEALRAALEAYRQGAGDREGLLEAIRVAIRRAAESEDERAILEAVRAARILLEAERTEEAKELLRVAIERAKKSPDPEAQREAKRAEEELRKEDGSGSHHWGSTHHHHHH
In the case of B6, the binding result (effector protein 3hb24) is reported as “binds” and the Kd [9] is reported as 2800 nM.

B7: FRET(extension) cs221F, unlabeled (designed binder)
chain: MSGEMVEEIEKLAEELAKKTKDCEVKKLAKKAAELAKKSTDEMKKEIVKDALELALRTKDEEVIRLALKAAVLAAESDDEEVKEVVKKALEAALKSKDEEVIRLLLLAAVLAAAAARSGSPEEKLEIAKKALELAMKSKDEEVIRLALLAAVLAARSDDEEVLKIVKKALELAMESKDVEVIRLALEAAVLAARSTDPEKKKCVYEALEKAMESKDEEEIKKELKAAVEKARSTEGSGSHHWGSTHHHHHH
notes: also called unlabeled extended hinge cs221F
B7 gave a Kd [10] of 23 nM.

B8: hinge cs074 (designed binder)
chain: MSGDEEVQEAVERAEELREEAEELIKKARKTGDPELLRKALEALKEAVRAVKEAIKRNPDNEEAVKTAVRLARELLKVAEELKERAEKTGDPRLLLLAAEAIAWAIEAVFLAAKASENTEGALEAARAAVKLAEVAKRIAKLLQRDAKKEGDPELLKLALRALELAVRAVELAIKENPDNEEAVETAKRLAEELRKVAELLEERAKETGDPELQELAKRAKEVADRARELAKKSNPNNGSGSHHWGSTHHHHHH
notes: De novo designed two-state hinge; the entry includes the C-terminal SNAC/His tag
B8: binds (effector protein 3hb03); binds (effector protein 3hb12); binds (effector protein 3hb04). The binding result (effector protein 3hb08) was “binds”, the binding result (effector protein 3hb11) was “binds” and the Kd [11] was 0.5 nM. It also gave a kon [2] of 64000 M⁻¹ s⁻¹.
